Experiment [1] addresses SpyCatcher-mi3 nanoparticle. Nature of the experiment: SDS-PAGE of the covalent SpyTag-SpyCatcher conjugate + dynamic light scattering; cPfCSP and SpyCatcher-mi3 mixed and allowed to react overnight at 4°C; conjugate band at ~65 kDa; diameter 48 nm against 34 nm. To be noted: scale: cPfCSP molecules per SpyCatcher-mi3 nanoparticle.
The target of experiment [2] is T1, full-length recombinant PfCSP (Plasmodium falciparum, strain of the …, UniProt Q7K740).
T1 construct: Plasmodium falciparum circumsporozoite protein; source: E. coli, recombinant, provided by Gennova (Pune, India)
T1 sequence (Q7K740 19-374): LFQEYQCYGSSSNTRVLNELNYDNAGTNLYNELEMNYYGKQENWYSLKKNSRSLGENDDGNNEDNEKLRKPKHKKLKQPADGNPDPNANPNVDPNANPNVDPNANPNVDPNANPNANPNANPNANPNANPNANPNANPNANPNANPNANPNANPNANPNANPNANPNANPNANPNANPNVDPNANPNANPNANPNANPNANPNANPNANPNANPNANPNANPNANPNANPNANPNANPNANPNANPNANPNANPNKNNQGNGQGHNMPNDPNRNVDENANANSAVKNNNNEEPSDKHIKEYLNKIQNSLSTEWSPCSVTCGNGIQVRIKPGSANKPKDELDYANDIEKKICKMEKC
The experiment in a line: ELISA; competition: 5 ng/mL mAb 2A10 pre-incubated with 0.5, 5 or 50 μg/mL of T1 or B3 peptide without cysteines, then allowed to bind to plates coated with PfCSP; signal normalised to that without peptide. To be noted: both partners purified.

Experiment [3] concerns the target T2, T1 synthetic peptide (without cysteine residues) (Plasmodium falciparum, synthetic peptide).
T2 construct: source: synthetic peptide
T2 chain: DPNANPNVDPNANPNV
The experiment is described as above. As to conditions: both partners purified.

The target of experiment [4] is T3, B3 synthetic peptide, (NANP)3 (without cysteine residues) (Plasmodium falciparum, synthetic peptide).
T3 construct: three NANP repeats of the major repeat region of Plasmodium falciparum circumsporozoite protein; written out from the printed formula (NANP)3; source: synthetic peptide
T3 chain: NANPNANPNANP
Described as above. As to conditions: both partners purified.

On to “chimeric PfCSP (cPfCSP) with C-terminal GPGPG spacer, SpyTag and 6x His-tag (from UniProt Q7K740 82-104; Q7K740 311-340; Q7K740 341-397)”, for which the stoichiometry N in experiment [1] came out at 3.2.

B1: 2A10 antibody (antibody, V domains shown)
VH: QIQLVQSGPELKKPGETVKISCKASGYTFTNYGINWVKQAPGKGLKWMGWINTITEEPTFAEEFTGRFAFSLETSASTAYLQINNLKNEDTATYFCARGSEFGRLVYWGQGASVTVSS
VL: DIQMTQTTSSLSASLGDRVTISCSASQGISNYLNWYQQKPDGTVKLLIFYTSTLYSGVPSRFSGSGSGTDYSLTISNLEPEDIATYYCQQYSRFPYVFGGGTKLEIK
notes: heavy chain gene cloned into the TGEX-HC vector; light chain gene cloned into the TGEX-LC vector; treated as one molecule; also called mAb 2A10; monoclonal antibody 2A10; source: HEK293F, transfected, purified (MabSelect SuRe)
For the molecule B1, the binding result in experiment [2], in experiment [3] and in experiment [4] was “binds” in each case.

The values are drawn from publication PMC10354751 (Bioengineering & Translational Medicine, 2023).
